Reference: the supplement of paper PMC6757056
± gives the standard deviation of the averaged measurements.

B1: library; a variant is named by its letters at N, in order (parent)
chain: GCUGUCACCGGUGCUUGGUACGUUAUAUUCAGCCGGUCUGAUGAGUCUNNNNNNAGACGAAACAGC

What was measured:
[1] = variants of: B1; assay: FACS-Seq fitted mean relative fluorescence mCherry/BFP without ligand (log10 relative fluorescence); HEK293T overexpressing SLC46A1; higher = higher reporter protein expression; conditions: without (6R,S)-folinic acid; ligand present: no
How it was run: (§1)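 Reporter cells were enriched HEK293T libraries transduced by lentivirus with mCherry behind the ribozyme switch and with an EF1α-BFP marker. Following 48 h with or without ligand, they were sorted into 6 mCherry/BFP bins, and bin genomic DNA was PCR-amplified, barcoded and MiSeq-sequenced. Fluorescence was computed as the fitted normal mean of the bin counts. The fit used log10(mCherry/BFP), with scaling to five spiked-in control ribozymes.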

[2] = variants of: B1; assay: normalized RNA/DNA level without ligand (relative to sTRSVctl = 100) (log10 (% of sTRSVctl)); HEK293T overexpressing SLC46A1; higher = less ribozyme self-cleavage, higher mRNA level; conditions: without (6R,S)-folinic acid; ligand present: no
How it was run: (§2)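 For each 6-well well, 4 µg of library plasmid encoding mCherry-linked ribozyme switches, or eGFP-linked ones in some ligand experiments, was transfected into HEK293T. Any ligand was added 1 h before transfection, and RNA was extracted with EDTA 72 h after it, then reverse-transcribed, amplified, barcoded and sequenced. RNA level was obtained by dividing RNA reads by DNA reads, normalizing to a spiked-in non-cleaving sequence or to the top sequences, then scaling and log-transforming. The top set was 25 sequences, scaling was ×100 with log10, and ≥100 DNA reads were required.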

[3] = variants of: B1; assay: FACS-Seq fitted mean relative fluorescence mCherry/BFP with ligand (log10 relative fluorescence); HEK293T overexpressing SLC46A1; ligand concentration (+) FACS-Seq: 6 mM; higher = higher reporter protein expression; conditions: with (6R,S)-folinic acid; ligand present: yes
How it was run: as §1

[4] = variants of: B1; assay: normalized RNA/DNA level with ligand (relative to sTRSVctl = 100) (log10 (% of sTRSVctl)); HEK293T overexpressing SLC46A1; ligand concentration (+) RNA-Seq: 6 mM; higher = less ribozyme self-cleavage, higher mRNA level; conditions: with (6R,S)-folinic acid; ligand present: yes
How it was run: as §2

| Variant | FACS-Seq fitted mean (log10) [1] | normalized RNA/DNA level without ligand (log10) [2] | FACS-Seq fitted mean (log10) [3] | normalized RNA/DNA level with ligand (log10) [4] |
| --- | --- | --- | --- | --- |
| CGGGUA | -0.402 ± 0.16 | 1.939 ± 0.018 | -0.606 ± 0.59 | 1.97 ± 0.054 |
| UGGGCG | 0.142 ± 0.034 | 1.787 ± 0.014 | 0.637 ± 0.097 | 2.009 ± 0.0047 |
| UGGGCC | 0.229 ± 0.0089 | 2.048 ± 0.012 | 0.157 ± 0.022 | 2.03 ± 0.0098 |
| CGUAAA | 0.203 ± 0.0032 | 1.956 ± 0.0076 | 0.334 ± 0.32 | 1.977 ± 0.017 |
| CGUAAU | 0.544 ± 0.015 | 1.93 ± 0.029 | 0.552 ± 0.14 | 1.96 ± 0.022 |
| CGGAUA | 0.0197 ± 0.04 | 1.9689 ± 0.0014 | -0.118 ± 0.034 | 1.98 ± 0.061 |
| CGGAUG | 0.00208 ± 0.054 | 2 ± 0.024 | -0.0609 ± 0.15 | 2.02 ± 0.043 |
| GGGCGG | 0.0567 ± 0.099 | 2.07 ± 0.027 | 0.485 ± 0.0056 | 2.06 ± 0.045 |
| AGGCAA | 0.293 ± 0.14 | 1.994 ± 0.016 | 0.205 ± 0.1 | 1.994 ± 0.019 |
| AGGCAC | 0.308 ± 0.083 | 2.0376 ± 0.0006 | 0.298 ± 0.11 | 2.02 ± 0.018 |
| AGGCAU | 0.532 ± 0.008 | 1.982 ± 0.0087 | 0.603 ± 0.48 | 2.02 ± 0.026 |
| CGGGAU | 0.211 ± 0.017 | 1.97 ± 0.029 | 0.0466 ± 0.17 | 2 ± 0.049 |
| CGGGAC | -0.0861 ± 0.029 | 2.015 ± 0.0095 | -0.418 ± 0.079 | 2.02 ± 0.032 |
| CGGGAA | 0.288 ± 0.27 | 1.98 ± 0.024 | 0.519 ± 0.063 | 2.02 ± 0.046 |
| GGUAGU | 0.312 ± 0.15 | 1.988 ± 0.0021 | 0.316 ± 0.16 | 2.01 ± 0.055 |
| AGGCUA | 0.50616 ± 0.00017 | 2.041 ± 0.0053 | 0.407 ± 0.33 | 2.06 ± 0.037 |
| AGGCUC | 0.131 ± 0.13 | 2.06 ± 0.041 | -0.123 ± 0.11 | 2.01 ± 0.067 |
| GGUACA | -0.547 ± 0.083 | 2.066 ± 0.0024 | -0.647 ± 0.18 | 2.07 ± 0.036 |

| Variant | FACS-Seq fitted mean (log10) [1] | normalized RNA/DNA level without ligand (log10) [2] | FACS-Seq fitted mean (log10) [3] | normalized RNA/DNA level with ligand (log10) [4] |
| --- | --- | --- | --- | --- |
| UGGUGA | 0.399 ± 0.049 | 1.881 ± 0.0069 | 0.443 ± 0.061 | 2.014 ± 0.0098 |
| UGGUGU | 0.386 ± 0.1 | 1.933 ± 0.014 | 0.292 ± 0.034 | 2.01 ± 0.048 |
| UGGUGG | 0.464 ± 0.054 | 1.736 ± 0.014 | 0.742 ± 0.064 | 1.96 ± 0.031 |
| UGGCCA | 0.74 ± 0.1 | 2.04 ± 0.014 | 0.432 ± 0.081 | 2.057 ± 0.014 |
| AGGGAC | -0.124 ± 0.15 | 1.972 ± 0.011 | 0.0745 ± 0.15 | 1.994 ± 0.01 |
| AGGGAG | 0.271 ± 0.18 | 1.8747 ± 0.0018 | 0.349 ± 0.099 | 1.99 ± 0.046 |
| AGGUUU | 0.323 ± 0.15 | 2.003 ± 0.012 | 0.561 ± 0.075 | 2.0283 ± 0.00022 |
| AGGUUA | 0.33 ± 0.013 | 1.981 ± 0.0028 | 0.384 ± 0.056 | 1.98 ± 0.04 |
| AGGUGA | 0.616 ± 0.086 | 1.964 ± 0.0069 | 0.768 ± 0.25 | 2.03 ± 0.028 |
| AGGUGU | 0.0941 ± 0.074 | 1.954 ± 0.015 | 0.266 ± 0.017 | 2.0099 ± 0.00041 |
| AGGUGG | 0.777 ± 0.14 | 1.977 ± 0.0086 | 0.549 ± 0.26 | 2.05 ± 0.045 |
| AGGUCC | 0.442 ± 0.027 | 2.04 ± 0.0067 | 0.429 ± 0.22 | 2.03 ± 0.021 |
| CGGCUC | 0.213 ± 0.046 | 2.048 ± 0.0069 | 0.269 ± 0.16 | 2.037 ± 0.014 |
| UGGAGU | 0.504 ± 0.12 | 1.894 ± 0.0062 | 0.658 ± 0.037 | 1.99 ± 0.035 |
| CGGUGU | 0.22 ± 0.22 | 1.993 ± 0.015 | 0.278 ± 0.12 | 1.98 ± 0.046 |
| GGUAAA | 0.462 ± 0.11 | 1.979 ± 0.014 | 0.474 ± 0.38 | 2 ± 0.03 |
| GGUAAU | 0.342 ± 0.044 | 1.992 ± 0.015 | 0.504 ± 0.12 | 2.03 ± 0.043 |
| GGUAAG | 0.539 ± 0.082 | 1.919 ± 0.0032 | 0.424 ± 0.051 | 2 ± 0.036 |
